Laboratory results from US20260250388A1 (published 2026).

T1: KRAS G12V peptide on HLA-A*11:01 (human)
T1 peptide: VVVGAVGVGK

T2: KRAS G12V peptide on HLA-A*11:01 (human)
T2 peptide: VVGAVGVGK


Assays:
[1] = target: T1, KRAS G12V peptide on HLA-A*11:01; test: killing
Excerpt: A lentiviral vector containing the TCR gene of the present invention was constructed and used to transduce T cells. The T cells transduced with different TCRs were co-cultured with: (1) HLA-A*11:01-expressing K562 cells loaded with different peptides (G12V-9 peptide: […] (SEQ ID NO: 91), G12V-10 peptide: […] (SEQ ID NO: 92), or WT peptide: […] (SEQ ID NO: 93)+[…] (SEQ ID NO: 94)); and (2) BxPC3 cells expressing HLA-A*11:01, co-expressing HLA-A*11:01 and KRAS G12V, or co-expressing HLA-A*11:01 and KRAS G12D (effector cell:target cell=5:1). After co-incubation for 16 h, the killing ability of T cells against target cells was evaluated by detecting LDH release. Statistical data are shown in FIGS. 2A and 2B (GraphPad Prism 8.0.1 software).

[2] = target: T2, KRAS G12V peptide on HLA-A*11:01; test: multimer staining
[3] = target: T2, KRAS G12V peptide on HLA-A*11:01; test: CD69 by flow cytometry on TCR1-transduced Jurkat cells; K562-A*11:01 loaded with peptide at 10^-11 to 10^-6 M; FIG. 4C; full-length, on cells
Procedure: (§1) EC₅₀ values of different TCRs were assessed by spot numbers of IFN-γ release and CD69 expression after co-culture of specific TCR-transduced T cells with target cells loaded with graded concentrations of KRAS G12V-9 peptide ([…]) (SEQ ID NO: 91).

[4] = target: T1, KRAS G12V peptide on HLA-A*11:01; test: as above
Procedure: as §1

[5] = target: HLA-A*11:01 / KRAS G12V 10-mer peptide … complex (human); test: cell-based or functional assay
[6] = target: HLA-A*11:01 / KRAS G12V 9-mer peptide … complex (human); test: cell-based or functional assay

Row | Binder | binding result [2] | binding result [1] | further results
1 | TCR3 (TCR, V domains shown) Valpha: DQQVKQNSPSLSVQEGRISILNCDYTNSMFDYFLWYKKYPAEGPTFLISISSIKDKNEDGRFTVFLNKSAKHLSLHIVPSQPGDSAVYFCAANSGYALNFGKGTSLLVTP Vbeta: KAGVTQTPRYLIKTRGQQVTLSCSPISGHRSVSWYQQTPGQGLQFLFEYFSETQRNKGNFPGRFSGRQFSNSRSEMNVSTLELGDSALYLCASSLGGVGNEQFFGPGTRLTVL | recognises | recognises | –
2 | TCR1 (TCR, V domains shown) Valpha: LAKTTQPISMDSYEGQEVNITCSHNNIATNDYITWYQQFPSQGPRFIIQGYKTKVTNEVASLFIPADRKSSTLSLPRVSLSDTAVYYCLVGALSSSWYGQNFVFGPGTRLSVLP Vbeta: DTAVSQTPKYLVTQMGNDKSIKCEQNLGHDTMYWYKQDSKKFLKIMFSYNNKELIINETVPNRFSPKSPDKAHLNLHINSLELGDSAVYFCASSQSGAQDGYTFGSGTRLTVV | – | – | EC50 of peptide [3]: 2.24 nM; EC50 of peptide [4]: 31.3 nM
3 | TCR4 (TCR, V domains shown) Valpha: QKEVEQNSGPLSVPEGAIASLNCTYSDRGSQSFFWYRQYSGKSPELIMFIYSNGDKEDGRFTAQLNKASQYVSLLIRDSQPSDSATYLCAVERGSTLGRLYFGRGTQLTVWP Vbeta: GAGVSQSPRYKVTKRGQDVTLRCDPISSHATLYWYQQALGQGPEFLTYFNYEAQPDKSGLPSDRFSAERPEGSISTLTIQRTEQRDSAMYRCASSLSSPTGGPINEQFFGPGTRLTVL | recognises | recognises | –
4 | TCR1 (TCR) TCR alpha: SLAKTTQPISMDSYEGQEVNITCSHNNIATNDYITWYQQFPSQGPRFIIQGYKTKVTNEVASLFIPADRKSSTLSLPRVSLSDTAVYYCLVGALSSSWYGQNFVFGPGTRLSVLPYIQNPDPAVYQLRDSKSSDKSVCLFTDFDSQTNVSQSKDSDVYITDKTVLDMRSMDFKSNSAVAWSNKSDFACANAFNNSIIPEDTFFPSPESSCDVKLVEKSFETDTNLNFQNLSVIGFRILLLKVAGFNLLMTLRLWSS TCR beta: DTAVSQTPKYLVTQMGNDKSIKCEQNLGHDTMYWYKQDSKKFLKIMFSYNNKELIINETVPNRFSPKSPDKAHLNLHINSLELGDSAVYFCASSQSGAQDGYTFGSGTRLTVVEDLNKVFPPEVAVFEPSEAEISHTQKATLVCLATGFFPDHVELSWWVNGKEVHSGVSTDPQPLKEQPALNDSRYCLSSRLRVSATFWQNPRNHFRCQVQFYGLSENDEWTQDRAKPVTQIVSAEAWGRADCGFTSVSYQQGVLSATILYEILLGKATLYAVLVSALVLMAMVKRKDF | – | – | EC50 of CD69 expression of TCR-transduced Jurkat cells after co-culture with K562-A*11:01 loaded with graded peptide concentrations (FIG. 4C) [5]: 31.3 nM; fold difference of EC50 (CD69 expression) between the 10-mer and the 9-mer peptide [5]: 10 fold; EC50 of CD69 expression of TCR-transduced Jurkat cells after co-culture with K562-A*11:01 loaded with graded peptide concentrations (FIG. 4C) [6]: 2.24 nM
5 | TCR6 (TCR, V domains shown) Valpha: AQSVTQPDIHITVSEGASLELRCNYSYGATPYLFWYVQSPGQGLQLLLKYFSGDTLVQGIKGFEAEFKRSQSSFNLRKPSVHWSDAAEYFCAVGASREYGNKLVFGAGTILRVKS Vbeta: NAGVMQNPRHLVRRRGQEARLRCSPMKGHSHVYWYRQLPEEGLKFMVYLQKENIIDESGMPKERFSAEFPKEGPSILRIQQVVRGDSAAYFCASSPGGLLHFGNGTRLTVT | recognises | recognises | –

More lines, main results first:

Row | binding result [2] | Binder | binding result [1] | further results
6 | recognises | TCR8 (TCR, V domains shown) Valpha: SQQGEEDPQALSIQEGENATMNCSYKTSINNLQWYRQNSGRGLVHLILIRSNEREKHSGRLRVTLDTSKKSSSLLITASRAADTASYFCATDAGGGADGLTFGKGTHLIIQP Vbeta: DSGVTQTPKHLITATGQRVTLRCSPRSGDLSVYWYQQSLDQGLQFLIQYYNGEERAKGNILERFSAQQFPDLHSELNLSSLELGDSALYFCASSESRDSGNTIYFGEGSWLTVV | recognises | –
7 | recognises | TCR9 (TCR, V domains shown) Valpha: SQQGEEDPQALSIQEGENATMNCSYKTSINNLQWYRQNSGRGLVHLILIRSNEREKHSGRLRVTLDTSKKSSSLLITASRAADTASYFCATDSGGGADGLTFGKGTHLIIQP Vbeta: DSGVTQTPKHLITATGQRVTLRCSPRSGDLSVYWYQQSLDQGLQFLIQYYNGEERAKGNILERFSAQQFPDLHSELNLSSLELGDSALYFCASTPGRDSGNTIYFGEGSWLTVV | recognises | –
8 | recognises | TCR5 (TCR, V domains shown) Valpha: GEDVEQSLFLSVREGDSSVINCTYTDSSSTYLYWYKQEPGAGLQLLTYIFSNMDMKQDQRLTVLLNKKDKHLSLRIADTQTGDSAIYFCAESPGGGADGLTFGKGTHLIIQP Vbeta: GAVVSQHPSWVICKSGTSVKIECRSLDFQATTMFWYRQFPKQSLMLMATSNEGSKATYEQGVEKDKFLINHASLTLSTLTVTSAHPEDSSFYICSAPRGWAAGVYGYTFGSGTRLTVV | recognises | –
9 | recognises | TCR2 (TCR, V domains shown) Valpha: DQQVKQNSPSLSVQEGRISILNCDYTNSMFDYFLWYKKYPAEGPTFLISISSIKDKNEDGRFTVFLNKSAKHLSLHIVPSQPGDSAVYFCAAKDNAGNMLTFGGGTRLMVKP Vbeta: KAGVTQTPRYLIKTRGQQVTLSCSPISGHRSVSWYQQTPGQGLQFLFEYFSETQRNKGNFPGRFSGRQFSNSRSEMNVSTLELGDSALYLCASSLGTAEAFFGQGTRLTVV | recognises | –
10 | recognises | TCR7 (TCR, V domains shown) Valpha: DQQVKQNSPSLSVQEGRISILNCDYTNSMFDYFLWYKKYPAEGPTFLISISSIKDKNEDGRFTVFLNKSAKHLSLHIVPSQPGDSAVYFCAGKTNTGNQFYFGTGTSLTVIP Vbeta: KAGVTQTPRYLIKTRGQQVTLSCSPISGHRSVSWYQQTPGQGLQFLFEYFSETQRNKGNFPGRFSGRQFSNSRSEMNVSTLELGDSALYLCASSSGHPEAFFGQGTRLTVV | recognises | –
